Test results taken from patent US20130225493A1.

B1: FGF-18^Δ45, O76093 46-207 (ligand)
chain: MDVSRKQLRLYQLYSRTSGKHIQVLGRRISARGEDGDKYAQLLVETDTFGSQVRIKGKETEFYLCMNRKGKLVGKPDGTSKECVFIEKVLENNYTALMSAKYSGWYVGFTKKGRPRKGPKTRENQQDVHFMKRYPKGQPELQKPFKYTTVTKRSRRIRPTHPA
modifications: here or on the partner: biotinylated in the immobilized receptor assays (sites not given)
B2: FGF-18^Δ37, O76093 38-207 (ligand)
chain: MENQTRARDDVSRKQLRLYQLYSRTSGKHIQVLGRRISARGEDGDKYAQLLVETDTFGSQVRIKGKETEFYLCMNRKGKLVGKPDGTSKECVFIEKVLENNYTALMSAKYSGWYVGFTKKGRPRKGPKTRENQQDVHFMKRYPKGQPELQKPFKYTTVTKRSRRIRPTHPA
modifications: here or on the partner: biotinylated in the immobilized receptor assays (sites not given)
B3: FGF-18^Δ51, O76093 52-207 (ligand)
chain: MLRLYQLYSRTSGKHIQVLGRRISARGEDGDKYAQLLVETDTFGSQVRIKGKETEFYLCMNRKGKLVGKPDGTSKECVFIEKVLENNYTALMSAKYSGWYVGFTKKGRPRKGPKTRENQQDVHFMKRYPKGQPELQKPFKYTTVTKRSRRIRPTHPA
modifications: here or on the partner: biotinylated in the immobilized receptor assays (sites not given)
B4: FGF-18 (recombinant wild type, mature form without the signal peptide), O76093 29-207 (ligand)
chain: MENVDFRIHVENQTRARDDVSRKQLRLYQLYSRTSGKHIQVLGRRISARGEDGDKYAQLLVETDTFGSQVRIKGKETEFYLCMNRKGKLVGKPDGTSKECVFIEKVLENNYTALMSAKYSGWYVGFTKKGRPRKGPKTRENQQDVHFMKRYPKGQPELQKPFKYTTVTKRSRRIRPTHPA
modifications: here or on the partner: biotinylated in the immobilized receptor assays (sites not given)

target: FGFR3-IIIc stably expressed on FDCP cells, P22607; experiment: cell-based or functional assay
Sequence (P22607 23-806): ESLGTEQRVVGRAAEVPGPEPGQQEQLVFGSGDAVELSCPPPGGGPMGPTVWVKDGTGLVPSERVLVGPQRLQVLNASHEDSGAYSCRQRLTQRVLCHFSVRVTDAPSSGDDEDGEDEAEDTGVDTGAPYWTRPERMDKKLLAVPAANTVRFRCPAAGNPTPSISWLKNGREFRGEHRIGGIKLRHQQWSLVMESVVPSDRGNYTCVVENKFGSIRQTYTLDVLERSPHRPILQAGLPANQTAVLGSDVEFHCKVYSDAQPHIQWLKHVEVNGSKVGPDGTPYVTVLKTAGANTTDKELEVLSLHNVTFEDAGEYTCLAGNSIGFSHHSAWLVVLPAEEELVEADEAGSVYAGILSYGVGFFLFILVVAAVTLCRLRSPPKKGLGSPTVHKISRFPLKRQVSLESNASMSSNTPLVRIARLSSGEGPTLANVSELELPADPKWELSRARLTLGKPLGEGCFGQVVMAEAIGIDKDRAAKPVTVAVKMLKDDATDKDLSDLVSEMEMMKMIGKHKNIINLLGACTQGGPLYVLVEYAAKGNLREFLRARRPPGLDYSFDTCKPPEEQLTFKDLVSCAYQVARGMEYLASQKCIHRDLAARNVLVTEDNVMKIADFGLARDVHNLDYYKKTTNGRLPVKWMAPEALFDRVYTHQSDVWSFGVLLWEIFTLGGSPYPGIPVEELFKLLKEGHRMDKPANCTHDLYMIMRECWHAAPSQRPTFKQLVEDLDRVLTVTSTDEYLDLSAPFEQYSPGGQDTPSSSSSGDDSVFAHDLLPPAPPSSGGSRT

EC50 scores of FGF ligands in cell proliferation of FDCPR3 | Binder
5.44 ng/mL | B1
3.14 ng/mL | B2
3.97 ng/mL | B3
15.4 ng/mL | B4
